The RNAGym collection of RNA variant scans (doi:10.1101/gr.219683.116)

B1: mRNA-splicing (parent)
chain: AGUUGCUGCUGGGAGCUCCAGCACAGUGAAAUGGACAGAAGGGCAGAGCAA

Variants of: B1
Assay: exon inclusion enrichment index; higher = more inclusion; WT1 exon 5 minigene, HEK293

In order of rising “exon inclusion enrichment index” value:
1. G5U C6G  0.00229
2. G5U G8U C9U A14U G15A  0.00362
3. G5U G8U C9U A14U G15U  0.00524
4. G5U C6U  0.0058
5. G5U G8U C9U A14G G15U  0.0063
6. G5U G8U C9U A14U  0.0126
7. G5U C6A U7G G8U C9U  0.013
8. G5U G8U C9A U10G  0.0162
9. G5U G8U C9U A14U G15C  0.0163
10. G5U G8U C9U A14C G15C  0.0167
11. G5U G8U C9U A14C G15U  0.0169
12. G5U C6U U7A C9A U10A  0.0191
13. G5U C6U G8U C9U  0.0204
14. G5U G8U C9U A20C G21C  0.0207
15. G5U G8U C9U A14C G15A  0.0209
16. G5U C6U U7A G8U C9U  0.0321
17. G5U G8U C9A U10A  0.0322
18. G5U G8U C9U A20C G21U  0.0336
19. G5U G8U C9U A20C G21A  0.0355
20. G5U C6U U7C G8A U10A  0.0434
21. G5U G8U C9U A14G G15A  0.0466
22. G5U C6A U7G C9A  0.0473
23. G5U G8U C9U A20U G21A  0.0475
24. G5U G8U C9U A14G G15C  0.0571
25. G5U G8A C9G  0.061
26. G5U C6G U7G C9A  0.0617
27. G5U G8U C9U A20U G21U  0.0618
28. G5U C6U U7A G8U C9A  0.0673
29. G5U C6A U7A G8U C9U  0.0678
30. G5U G8U C9U A14G  0.0707
31. G5U C6A U7C G8A U10A  0.0713
32. G5U C6A U7A G8U C9A  0.0741
33. G5U C6A G8U C9U  0.0752
34. G5U C6G G8U C9U  0.0807
35. G5U C6A U7A C9A U10A  0.0813
36. G5U C6G U7G G8U C9U  0.0864
37. G5U C6G U7C G8A U10A  0.1
38. G5U G8U C9U A20U G21C  0.1
39. G5U G8U C9G U10G  0.108
40. G5U G8U C9U A14C  0.108
41. G5U C6U U7G G8U C9U  0.119
42. G5U G8U C9U A20C  0.124
43. G5U G8U C9G U10A  0.128
44. G5U C6G U7A C9A U10A  0.147
45. G5U C6U U7C G8U C9U  0.154
46. G5U G8U C9U  0.16
47. G5U C6A U7C G8U C9U  0.164
48. G5U G8U C9U A20G G21C  0.187
49. G5U G8U C9U A20U  0.191
50. G5U G8U C9A  0.194
51. G5U G8U C9U A20G G21U  0.195
52. G5U C6G U7A G8U C9U  0.198
53. G5U G8A C9A  0.204
54. G5U G8A C9U  0.205
55. G5U C6G U7A G8U C9A  0.241
56. G5U G8U C9U A20G G21A  0.241
57. G5U C9G  0.253
58. G5U G8U C9G  0.267
59. G5U G8U C9U A20G  0.322
60. G5U C6G U7C G8U C9U  0.349
61. G5U C9U  0.393
62. G5U G8C C9U  0.417
63. G5U C6U U7G C9A  0.469
64. G5U G8U C9A U10C  0.61
65. G5U C6U G8C C9U U10C  0.672
66. G5U G8C C9A  0.689
67. G5U G8U C9G U10C  0.741
68. G5U G8C C9U U10C  0.934
69. G5U C9A  0.991
70. G5U C6G G8C C9U U10C  1.09
71. G5U G8A  1.23
72. G5U G8U  1.33
73. G5U G8C  1.34
74. G5U G8C C9G  1.51
75. G5U C6A U7C G8A U10C  1.56
76. G5U C6U U7C G8A U10C  1.85
77. G5U C6G U7C G8A U10C  2.27
78. G5U C6G U7C U10C  2.34
79. G5U C6G U7C C9A U10C  2.41
80. G5U C6A U7C C9A U10C  2.8
81. G5U C6U U7C C9A U10C  2.91
82. G5U C6U U7C U10C  3.03
83. G5U C6A U7C U10C  3.2
